The values below come from patent US20240201167A1 (ALBERT EINSTEIN COLLEGE OF MEDICINE, published 2024).

Several values for one entry are separate records, joined by “and”; a condition that tells them apart may be missing. Equal values may be shown once.

Assay [1] concerns the target T1, human CTLA-4 expressed on HEK 293 cells (human, UniProt P16410 36-223).
T1 construct: whole, on cells; also called CTLA-4-GFP
In words: Fc fusion titrated on CTLA-4-expressing cells, flow cytometry. As to the method:
(§1) Three days post transfection cells were counted and diluted to 1×10⁶ cells/mL in 1×PBS 0.2% BSA, pH 7.4. Premixed solutions containing a final concentration of 1 μM Fc-fusion protein and 1.5 μM Alexa 647 goat anti-mouse secondary antibody (ThermoFisher, A-21235) were incubated on ice for 30 min. Subsequently, increasing amounts of the premixed solution was added to wells of a 96-well plate and the volume adjusted to 50 μL with 1×PBS and 100 μL of diluted cells (100,000 cells total) added to the wells. Binding was performed at room temperature for 1 hour, the cells washed 2× with 1×PBS 0.2% BSA by centrifugation and subsequently analyzed by Flow Cytometry on a SONY Spectral Analyzer (SA 3800). Gated live cells were sub-gated for GFP, and GFP-positive cells sub-gated for Alexa-647.
For orientation: A flow cytometer gives signals particle by particle.

Assay [2] deals with T2, human CD28 expressed on HEK 293 cells (human, UniProt P10747 19-220).
T2 construct: whole, on cells; also called CD28-GFP
In words: Fc fusion titrated on CD28-expressing cells, flow cytometry. As to the method: as §1

Assay [3] addresses T3, human p75 neurotrophin receptor, full length, expressed on HEK 293 cells (Homo sapiens, UniProt P08138 29-427).
T3 construct: Full-length human p75 with a cytosolic fluorescent tag (GFP); also called p75NTR; NGFR
T3 sequence: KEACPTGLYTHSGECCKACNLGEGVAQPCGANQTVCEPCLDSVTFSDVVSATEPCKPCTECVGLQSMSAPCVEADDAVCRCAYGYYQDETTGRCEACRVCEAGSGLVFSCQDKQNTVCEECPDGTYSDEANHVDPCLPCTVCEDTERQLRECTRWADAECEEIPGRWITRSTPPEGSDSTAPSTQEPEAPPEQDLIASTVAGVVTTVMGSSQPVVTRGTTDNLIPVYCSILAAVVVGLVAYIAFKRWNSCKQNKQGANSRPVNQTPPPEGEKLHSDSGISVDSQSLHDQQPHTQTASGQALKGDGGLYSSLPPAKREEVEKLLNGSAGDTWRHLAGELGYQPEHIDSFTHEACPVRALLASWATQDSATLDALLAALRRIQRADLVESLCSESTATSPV
Nature of the assay: Fc fusion titrated on transfected cells, flow cytometry. As to the method: as §1

The target of assay [4] is T4, rat p75NTR expressed on cells (rat, UniProt P07174 30-425).
T4 construct: whole, on cells; also called rat p75NTR-GFP; rodent p75NTR
T4 sequence (looked up): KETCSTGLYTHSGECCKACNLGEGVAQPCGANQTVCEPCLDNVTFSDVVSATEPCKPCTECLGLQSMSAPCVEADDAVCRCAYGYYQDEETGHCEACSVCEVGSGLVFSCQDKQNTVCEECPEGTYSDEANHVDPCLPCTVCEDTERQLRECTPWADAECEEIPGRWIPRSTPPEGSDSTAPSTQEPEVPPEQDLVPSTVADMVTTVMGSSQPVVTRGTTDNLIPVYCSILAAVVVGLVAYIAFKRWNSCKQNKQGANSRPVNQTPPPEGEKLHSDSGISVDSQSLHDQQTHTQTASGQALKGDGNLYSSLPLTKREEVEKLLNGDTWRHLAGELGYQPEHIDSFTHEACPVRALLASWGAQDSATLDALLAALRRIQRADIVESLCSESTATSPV
Nature of the assay: cell-cell binding, flow cytometry.

For another assay, the target named is T5, mouse p75NTR (mouse, UniProt Q9Z0W1 32-427).
T5 construct: whole, on cells; also called mouse p75NTR-GFP; murine p75
T5 sequence (looked up): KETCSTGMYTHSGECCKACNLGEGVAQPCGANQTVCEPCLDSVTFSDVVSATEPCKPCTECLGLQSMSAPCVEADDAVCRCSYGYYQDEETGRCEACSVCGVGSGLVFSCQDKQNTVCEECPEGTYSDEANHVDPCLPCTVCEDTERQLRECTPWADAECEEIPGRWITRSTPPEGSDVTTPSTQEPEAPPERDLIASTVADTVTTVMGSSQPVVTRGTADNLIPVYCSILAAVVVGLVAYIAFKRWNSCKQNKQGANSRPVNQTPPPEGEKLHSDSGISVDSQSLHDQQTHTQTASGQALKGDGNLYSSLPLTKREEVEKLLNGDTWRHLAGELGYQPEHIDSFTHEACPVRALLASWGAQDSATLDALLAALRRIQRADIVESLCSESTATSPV
Nature of the assay: cell-cell binding, flow cytometry.

The target of assay [5] is T3, human p75 neurotrophin receptor, full …. Nature of the assay: cell-cell binding, flow cytometry.
Assay [6] deals with T6, human B7-1 (CD80), full length, expressed on HEK 293 cells (Homo sapiens, UniProt P33681 35-280).
T6 construct: also called hB7-1; B7-1-mCherry
T6 sequence: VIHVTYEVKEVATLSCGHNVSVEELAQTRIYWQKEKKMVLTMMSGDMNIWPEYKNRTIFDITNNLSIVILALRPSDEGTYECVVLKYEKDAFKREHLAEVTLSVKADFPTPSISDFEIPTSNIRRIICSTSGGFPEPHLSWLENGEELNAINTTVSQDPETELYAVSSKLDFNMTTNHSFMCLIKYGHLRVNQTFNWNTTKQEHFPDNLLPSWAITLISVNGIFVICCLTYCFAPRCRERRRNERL
In words: cell-cell screen, flow cytometry. As to the method: As illustrated, cells were transfected with expression cassettes expressing labeled receptors or labeled ligands, receptor-expressing cells were mixed with ligand-expressing cells and cell-to-cell binding was monitored by detecting the labels associated with the receptor and the ligand. […] Binding was detected using an anti-mIgG2A ab and flow cytometry. The binding curves were fit and the Bmax, EC50, and hill coefficient were calculated using the equation Y=Bmax*Xh/(Kdh+Xh).

T1 sequence (P16410 36-223): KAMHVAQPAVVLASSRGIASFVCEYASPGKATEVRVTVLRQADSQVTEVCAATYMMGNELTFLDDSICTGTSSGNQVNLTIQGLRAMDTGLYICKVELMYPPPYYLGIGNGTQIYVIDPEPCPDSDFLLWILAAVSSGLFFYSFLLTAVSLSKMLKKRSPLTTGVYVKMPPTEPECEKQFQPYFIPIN

B1: B7-1N82E-Fc (Fc fusion)
chain: VIHVTYEVKEVATLSCGHNVSVEELAQTRIYWQKEKKMVLTMMSGDMEIWPEYKNRTIFDITNNLSIVILALRPSDEGTYECVVLKYEKDAFKREHLAEVTLSVKADFPTPSISDFEIPTSNIRRIICSTSGGFPEPHLSWLENGEELNAINTTVSQDPETELYAVSSKLDFNMTTNHSFMCLIKYGHLRVNQTFNWNT
notes: also called recombinant mutant B7-1 N82E; B7-1 N82E Fc fusion protein; not shown: C-terminal deca-His-tagged Fc domain (mIgG2a-His10 or hIgG1-His10)
Consider B1, for which the EC50 was ~9 nM and ~10 nM in assay [1]; ~9 nM and ~10 nM in assay [2]. In addition, the binding result in assay [3] is recorded as “no binding”.

B2: mouse B7-1 expressed on cells (ligand)
chain: VDEQLSKSVKDKVLLPCRYNSPHEDESEDRIYWQKHDKVVLSVIAGKLKVWPEYKNRTLYDNTTYSLIILGLVLSDRGTYSCVVQKKERGTYEVKHLALVKLSIKADFSTPNITESGNPSADTKRITCFASGGFPKPRFSWLENGRELPGINTTISQDPESELYTISSQLDFNTTRNHTIKCLIKYGDAHVSEDFTWEKPPEDPPDSKNTLVLFGAGFGAVITVVVIVVIIKCFCKHRSCFRRNEASRETNNSLTFGPEEALAEQTVFL
notes: Cytosolic mCherry tag; also called mouse B7-1-mCherry; rodent B7-1
In the case of B2, the binding result (in assay [4]; with mouse p75NTR; in assay [5]) was “no binding” throughout.

B3: HVEM expressed on cells (receptor, human, UniProt Q92956 39-283, looked up)
chain: LPSCKEDEYPVGSECCPKCSPGYRVKEACGELTGTVCEPCPPGTYIAHLNGLSKCLQCQMCDPAMGLRASRNCSRTENAVCGCSPGHFCIVQDGDHCAACRAYATSSPGQRVQKGGTESQDTLCQNCPPGTFSPNGTLEECQHQTKCSWLVTKAGAGTSSSHWVWWFLSGSLVIVIVCSTVGLIICVKRRKPRGDVVKVIVSVQRKRQEAEGEATVIEALQAPPDVTTVAVEETIPSFTGRSPNH
notes: whole, on cells
As for B3, in assay [6], the binding result is reported as “no binding”.

As a reminder, the EC50 is the concentration needed to bring the measured effect to its halfway point. A lower EC50 goes with a more potent agent.
